T1: human recombinant S100A9 (human), P06702
T1 chain: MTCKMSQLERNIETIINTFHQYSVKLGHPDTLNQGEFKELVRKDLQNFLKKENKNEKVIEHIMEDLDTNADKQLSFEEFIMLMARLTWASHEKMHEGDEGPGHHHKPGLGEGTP

T2: human recombinant S100A9 (human, UniProt P06702 1-114)
T2 construct: S100A9, human, recombinant; Alone it runs as a homodimer by SEC; In the 1:1 mix with S100A8 it forms the calprotectin heterotetramer; also called S100A9 homodimers; source: human recombinant, generated by the authors, purity confirmed
T2 sequence (looked up): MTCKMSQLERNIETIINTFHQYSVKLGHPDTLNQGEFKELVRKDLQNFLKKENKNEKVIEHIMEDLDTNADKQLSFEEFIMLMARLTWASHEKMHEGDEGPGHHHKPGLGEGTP


Assays:
Test in all cases: SEC; human recombinant S100A8, S100A9 or their 1:1 mix (CP) run as reference proteins; sizes read from the elution
[1] = molecular target: T1, human recombinant S100A9 (human), P06702
[2] = molecular target: the molecule itself
human recombinant S100A9 = molecular target: T2, human recombinant S100A9; details: both partners purified

stoichiometry N [1] | binding result (human recombinant S100A9) | Binder | stoichiometry N [2]
2 |  | human recombinant S100A9, P06702 1-114 (natural protein) MTCKMSQLERNIETIINTFHQYSVKLGHPDTLNQGEFKELVRKDLQNFLKKENKNEKVIEHIMEDLDTNADKQLSFEEFIMLMARLTWASHEKMHEGDEGPGHHHKPGLGEGTP | 
 | binds | human recombinant S100A8 (natural protein, UniProt P05109 1-93, looked up, S100A8, human, recombinant; Alone it runs as a homodimer by SEC; In the 1:1 mix with S100A9 it forms the calprotectin heterotetramer; also called S100A8 homodimers; S100A8/S100A8 homodimers; source: human recombinant, generated by the authors, purity confirmed) MLTELEKALNSIIDVYHKYSLIKGNFHAVYRDDLKKLLETECPQYIRKKGADVWFKELDINTDGAVNFQEFLILVIKMGVAAHKKSHEESHKE | 2
